Experimental data as given in US20230357387A1 (published 2023).

T1: human ZIP4 extracellular domain GST fusion (human, UniProt Q6P5W5 23-327)
T1 construct: also called hZIP4-ECD-GST; huZIP4-ECD-GST; not shown: glutathione S-transferase (GST) fusion partner
T1 sequence: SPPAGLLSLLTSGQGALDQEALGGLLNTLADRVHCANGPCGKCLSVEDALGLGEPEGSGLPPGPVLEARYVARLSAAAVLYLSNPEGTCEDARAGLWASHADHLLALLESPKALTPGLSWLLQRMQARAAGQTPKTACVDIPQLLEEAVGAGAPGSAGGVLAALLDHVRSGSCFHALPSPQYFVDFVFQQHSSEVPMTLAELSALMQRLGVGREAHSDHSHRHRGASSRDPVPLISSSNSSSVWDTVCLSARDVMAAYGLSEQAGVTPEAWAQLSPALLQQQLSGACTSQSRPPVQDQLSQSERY

T2: ZIP4 as tested by flow cytometry (human, UniProt Q6P5W5 23-647)
T2 sequence: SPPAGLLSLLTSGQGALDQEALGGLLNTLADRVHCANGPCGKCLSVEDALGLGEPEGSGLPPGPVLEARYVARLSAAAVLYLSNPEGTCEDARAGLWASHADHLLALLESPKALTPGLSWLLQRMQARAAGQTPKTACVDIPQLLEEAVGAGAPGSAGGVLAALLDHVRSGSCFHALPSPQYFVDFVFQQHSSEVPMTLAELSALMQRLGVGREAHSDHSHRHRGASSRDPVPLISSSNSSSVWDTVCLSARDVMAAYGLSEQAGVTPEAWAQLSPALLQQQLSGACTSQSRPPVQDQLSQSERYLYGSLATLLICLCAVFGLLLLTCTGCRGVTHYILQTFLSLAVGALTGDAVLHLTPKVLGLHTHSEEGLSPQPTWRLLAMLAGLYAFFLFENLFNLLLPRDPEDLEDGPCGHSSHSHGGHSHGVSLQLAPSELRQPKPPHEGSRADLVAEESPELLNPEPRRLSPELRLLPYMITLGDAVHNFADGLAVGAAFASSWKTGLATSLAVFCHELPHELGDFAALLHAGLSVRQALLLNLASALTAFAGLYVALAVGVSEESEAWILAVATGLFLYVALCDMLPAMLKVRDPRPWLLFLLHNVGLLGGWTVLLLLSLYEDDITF


Assays:
[1] = biological target: T3, human ZIP12 extracellular domain expressed as a GST fusion protein (human, UniProt Q504Y0 1-202); assay: ELISA-based reactivity screening, 63A11 lineage (FIG. 6)
T3 construct: also called hZIP12-ECD-GST; huZIP12-ECD-GST; not shown: glutathione S-transferase (GST) fusion partner

[2] = biological target: T1, human ZIP4 extracellular domain GST …; assay: as above
[3] = biological target: T4, human ZIP12 on human ZIP12 expressing transfectant cells (human, UniProt Q504Y0 1-691); assay: flow cytometry-based reactivity screening, 63A11 lineage (FIG. 7)
T4 construct: Zinc transporter; also called ZIP12 transfected cells

[4] = biological target: T2, ZIP4 as tested by flow cytometry; assay: as above
[5] = biological target: T3, human ZIP12 extracellular domain …; assay: ELISA-based reactivity screening, 51B12 lineage (FIG. 9)
[6] = biological target: T1, human ZIP4 extracellular domain GST …; assay: as above

Row | binding result [1] | binding result [2] | binding result [3] | binding result [4] | binding result [5] | binding result [6] | Binder
1 | binds | no binding | binds | no binding |  |  | 63A11 parental antibody (antibody, human IgG1, kappa, V domains shown, the full chains it gives are the chimeric ones; also called 19214; parent antibody) VH: EVQLVESGGGLVKPGGSRKLSCAASGFTFSDHGMHWVRQAPEKGLEWVAYISSGSSAIFYADTVKGRFTMSRDNAKNTLFLQMTSLRSEDTAMYFCARWTNLYAMDYWGQGTSVTVSS VL: DIVLTQSPASLAVSLGQRATISCRASKSVSTSGYSYMHWYQQKPGQPPKLLIYLASNLESGVPARFSGSGSGTDFTLNIHPVEEEDAATYYCQHSRELPLTFGAGTKLELKR
2 |  |  |  |  | binds | no binding | 51B12 parental antibody (antibody, human IgG1, kappa, V domains shown, also called 19213; parent antibody) VH: EVQLVESGGGLVKPGGSRKLSCAASGFTFSDYGMHWVRQAPEKGLEWVAYISSGGTTIYYADTVKGRFTISRDNAKNTLFLQMTSLRSEDTAMYYCARWTNLYAMDYWGQGTSVTVSS VL: DIVLTQSPASLAVSLGQRATISCRASKSVSTSGYSYMHWYQQKPGQPPKFLIYLASNLESGVPARFSGSGSGTDFTLNIHPVEEEDAATYYCQHSREVPYTFGGGTKLEIKR
